From the supplement of paper PMC10567573

B1: KLHL13 (parent)
chain: TGEFLKLPFERLAFVLSSNSLKHC
B2: PKD2L1 (parent)
chain: SGPEAARAGGWVSGEEFYMLTRRV

Variants of: B1
Assay: protein stability index of a GFP-peptide fusion (GPS, HEK-293T) (PSI 1-6); higher = more stable
Conditions: c terminus: a fixed tail appended
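Further: lentivirally expressed fusions sorted by FACS into six bins by GFP to DsRed ratio, PSI derived from sequencing read proportions per bin multiplied by bin number.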

Protein stability index, by site and new letter:
E3: Y 3.14; D 3.15; T 1; Q 4.44; H 2.67; N 5.52; R 2.35; P 2.66; V 2.28; A 2.21; G 4.77
T1: Q 2.82; H 3.25; L 3.16; E 2.1; R 3.17
G2: N 2.52; H 3.72; I 4.78; F 3.56; K 2.12
F4: N 1.48; D 1.55; A 2.92; I 1.31; E 1.42; G 1.45; K 1.78

Variants of: B2
Assay: as above
Conditions: c terminus: a fixed tail appended

Protein stability index, by site and new letter:
E16: D 2.29; Y 2.02; A 1.92; L 1.76; I 2.23; S 2.73; C 1.56; G 2.6; R 1.93; Q 2.25; N 2.42
E4: D 2.59; G 2.42; C 1.81; H 2.28; W 1.3; Y 1.92; S 3.46; L 1.6; R 2.44; N 2.64; M 2.35; T 1.78
G9: A 1.92; K 1.97; E 2.5; R 1.95; N 2.13; V 1.85; P 2.39; S 2.42; L 2.95; I 2.25; Y 2.21; H 2.03
T21: V 1.57; R 3.1; E 3.29; Q 2.94; A 2.41; I 1.75; P 3.33; F 1.5; K 3.71; D 3.76; H 2.27; L 2.62
R22: K 2.04; Q 2.25; P 2.44; D 3.43; I 2.28; N 2.81; S 2.55; E 3.26; C 1.55; L 3.52; H 1.96; G 2.33; T 1.33; Y 2.41
G14: I 2.63; M 2.46; E 3.18; W 2.19; N 3.21; Q 2.57; P 3.09; R 3.17; V 2.27; A 3.24; Y 2.08; D 3.91
V12: N 2.73; P 2.31; W 2.28; F 2.12; I 2.2; E 3.52; M 2.25; H 1.84; S 3.38; C 2.46; R 2.86; T 2.31; D 2.91; Q 2.49; G 3.15
W11: Q 3.92; F 2.05; S 2.89; G 3.28; I 2.6; H 4.33; N 3.85; D 3.52; M 2.76; V 3.19; A 3.56; E 4.09; C 2.79; L 3.09
R23: T 2.07; D 3.49; L 1.53; Y 2.44; F 2.06; Q 1.92; M 1.84; A 1.85; E 2.84; K 2.45; V 2.16; C 2.14; W 2.87
R7: G 2.24; I 2.11; Y 2.31; T 2.44; K 2.72; W 2.6; P 2.68; L 2.58; V 2.56; Q 3.04
S1: L 1.5; H 2.53; E 2.68; P 2.35; F 1.12; W 2.85; T 2.68; K 2.75; Q 3.02; A 2.81; D 2.35; Y 1.46; I 2.64
A5: G 3.07; P 2.2; N 2.18; M 2.58; D 2.71; K 1.96; Q 2.45; V 3.28; R 2.4; L 2.19
G10: A 2.22; W 2.53; Y 1.79; E 3.31; C 1.82; M 2.31; N 2.55; I 3.36; K 2.64; L 2.17; R 2.56; D 3.01; S 2.32; H 3.21; P 2.37
S13: C 2.08; I 1.47; F 2.44; E 3.15; K 2.05; W 2.17; D 3.01; L 1.77; T 2.13; V 2.03; H 2.74; A 1.96; Q 3.19; P 2.78
F17: H 3.33; R 3.68; E 4.26; S 3.58; Y 2.79; G 4.13; N 3.89; T 3.37; P 3.89; K 3.39; I 2.67; L 2.85
M19: W 2.68; I 2.01; T 2.94; P 3.94; G 3.03; V 1.48; F 2.93; H 3.08; N 3.63; R 3.11
A8: I 1.76; P 2.05; Q 2.65; L 2.02; F 1.7; D 2.43; Y 1.76; G 2.15; H 1.81; W 2.71; M 1.8; R 2.03; E 3.22; S 2.31; C 1.97; N 2.18
P3: V 2.14; Y 1.49; A 2.38; T 2.4; G 2.63; W 1.74; E 2.43; N 2.59; K 2.37; D 2.04; L 1.91; C 2.11; S 2.02; I 2.16
V24: S 2.67; H 2.72; R 2.63; C 2.08; Q 3.01; L 1.98; T 2.98; I 1.96; E 3.16; D 3.54; N 2.66; A 1.97; Y 2.07; P 2.81; K 3.63; M 1.71
E15: Q 2.16; N 2.46; H 2.17; F 3.15; D 2.54; I 1.59; L 2.02; P 2.52; T 2.45; K 2.92; R 2.62; V 2.03; W 1.99; A 1.86; C 1.54
A6: G 3.16; R 2.43; N 2.85; F 1.68; S 3.01; I 2.02; Q 2.13; M 1.7; E 2.65; V 3.13
L20: F 1.81; C 2.97; D 4.19; G 4.08; W 1.73; T 2.81; Q 3.1; M 2.93; K 3.46; N 3.79
G2: R 2.24; T 2.94; S 2.19; N 2.93; M 3.57; V 2.27; Y 1.72; F 1.83; A 2; Q 2.64; P 2.08; H 2.17
Y18: N 3.69; M 2.84; E 3.77; P 3.21; F 2.23; Q 3.03; W 2.69; D 3.94; A 3.38; R 3.55; H 3.46; G 3.44; L 2.56; K 4.08
